To fix the notation:
B1: TPR t1 (parent)
chain: GACCAAUCUGCCCUCAGAGCUCGAGAACAUCUUCGGAUGCAGAGGAGGCAGGCUUCGGUGGCGCGAUAGCGCCAACGUCCUCAACCUCCAAUGCAUCCCACCACAUGAUGAUGCCUGAAGAGCCUUGGUUUUUUG

Variants of B1 are the subject of this data set. In words: polymerase ribozyme fitness, log enrichment relative to wild type (log ratio); higher = more active; in vitro selection for triplet polymerase activity. In a few lines: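 A single round of triplicate in vitro selection, including frozen incubation at −7 °C, was applied to PCR-built, transcribed mutant libraries of each subunit of a heterodimeric triplet polymerase ribozyme. Illumina sequencing of input and output libraries retained genotypes with ≥10 input reads and ≥1 read per output. Fitness is the base-2 logarithm of genotype enrichment divided by wild-type enrichment, from inverse-variance-weighted replicate averages.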
On to U7C U131A, for which the “polymerase ribozyme fitness (log ratio)” value amounted to 0.00611.
Regarding U7G A41C C114G, the “polymerase ribozyme fitness (log ratio)” value is -0.902.
As for U7C C101A, the figure is -0.57; as for U7C C101G, -1.98; as for U7C G71A, -0.421.
Under U7G A18G C20A A43G C72G stands -5.03; under U7A G45A G58A U59C, -2.17.
As for U7A G39C A74G G107U G120U U130C, the figure is -4.02; as for U7A U130A, -0.147.
Regarding U7A G39U G69U, the “polymerase ribozyme fitness (log ratio)” value amounted to 0.59.
Turning to U7A G39U G69A, the “polymerase ribozyme fitness (log ratio)” value was -3.24.
For U7G, the “polymerase ribozyme fitness (log ratio)” value is 0.469.
As for U7C, the “polymerase ribozyme fitness (log ratio)” value was 0.304.
As for U7C C12U U106A C115U G127U, the figure is -1.03; as for U7C C73A C101U, 0.14; as for U7C A46G A108G C123A, -1.51.
U7A G42A G60C: the “polymerase ribozyme fitness (log ratio)” value was -2.37.
For the variant U7A U9G C73U C79G A84G U96C, the “polymerase ribozyme fitness (log ratio)” value is -2.27.
Take U7C C8G G17U C40A C89G A91C U126G: the “polymerase ribozyme fitness (log ratio)” value is -4.01.
As for U7G A27G G48C, the “polymerase ribozyme fitness (log ratio)” value was -0.78.
As for U7C C40A, the “polymerase ribozyme fitness (log ratio)” value was -0.659.
For the variant U7C G52U C98U C124A, the “polymerase ribozyme fitness (log ratio)” value was -0.108.
Consider U7C A27G G69C, for which the “polymerase ribozyme fitness (log ratio)” value is -2.37.
Under U7C A18G G117C stands -4.72; under U7C A74G C79A G93A U106C G117U U129C U130C, -5.05.
As for U7C C20G, the “polymerase ribozyme fitness (log ratio)” value is -4.91.
As for U7C C53U G71A U92G C114U, the figure is -2.79; as for U7C C8G G45A C53U G63A U87A, -1.06; as for U7C G71U U112A U133A, 1.1.
For the variant U7C G10C G60C C102U U112C, the “polymerase ribozyme fitness (log ratio)” value is -2.68.
U7A U14A G44U: the “polymerase ribozyme fitness (log ratio)” value is -2.04.
Under U7C A27G A46U G48U U59G G60U stands -3.46.
On to U7A G48C, for which the “polymerase ribozyme fitness (log ratio)” value was -0.566.
For the variant U7G A41U C62U U132C, the “polymerase ribozyme fitness (log ratio)” value is -0.941.
Under U7C A27U G36C G57A A74U stands -4.85.
Under U7C C15U G45A U92A stands -4.93.
Under U7C G42A C76U C101U G120C C123A stands -3; under U7C U32C U106A G113U, -3.53.
Take U7A G69U C80U C99U C124G: the “polymerase ribozyme fitness (log ratio)” value turned out to be 0.126.
Under U7C C8G C64G C85A U112G stands -6.03; under U7C G17A A41G G52U, -3.17; under U7C C15A A46U G48U U130C, -2.63.
Under U7C C11U stands 0.539.
Under U7C U14A U32A C53G G63C G120A stands -4.32; under U7G A41G A74U U106A U130C, 0.791.
As for U7C U14G G48U, the “polymerase ribozyme fitness (log ratio)” value was -2.35.
As to U7C C11G G65C A83U G120C A121U, the “polymerase ribozyme fitness (log ratio)” value is -6.35.
On to U7C C13U, for which the “polymerase ribozyme fitness (log ratio)” value was 0.52.
As for U7C C13G, the figure is 0.00167.
U7C A26G G45A: the “polymerase ribozyme fitness (log ratio)” value is -2.55.
U7C A46C G60U: the “polymerase ribozyme fitness (log ratio)” value is -0.333.
As for U7A G71C G110C, the figure is -6.39; as for U7C G36A U116C A118U U132A, -2.98.
Under U7C C13U A105U stands -1.79; under U7C C12G G44A U92A C102A C123U, -7.32; under U7C A90C G93A G117U U132A, -4.79.
Under U7A G48U C94G U116C G120A stands -2.95; under U7C C28A U78A C123U, -3.
U7C G135U: the “polymerase ribozyme fitness (log ratio)” value was -0.566.
Under U7A U92A stands -2.1; under U7A U21C C70U G71C A90G, -2.31; under U7G A50G, 0.715.
As for U7C G10A U14A C53G C56G A84U G117U, the figure is -6.36.
On to U7A G61A U112G, for which the “polymerase ribozyme fitness (log ratio)” value was 0.622.
Under U7C C124G stands 1.82; under U7A U9G C82G, -0.227.
Turning to U7A U106G G128C, the “polymerase ribozyme fitness (log ratio)” value is -4.39.
In the case of U7A G63U C80A, the “polymerase ribozyme fitness (log ratio)” value was -4.19.
Consider U7C U14G A74C, for which the “polymerase ribozyme fitness (log ratio)” value was -1.29.
U7C C11A C98A: the “polymerase ribozyme fitness (log ratio)” value is -6.8.
As for U7C G69A C88A, the figure is -2.92.
For U7A U21C C114A, the “polymerase ribozyme fitness (log ratio)” value was -0.182.
Take U7C G42C C72A C88U C115U: the “polymerase ribozyme fitness (log ratio)” value was -1.49.
As for U7C A16G C20U G120U, the figure is -2.78; as for U7C C85G, -1.66; as for U7C C8G C85A U112G, -1.68.
For the variant U7C G44U, the “polymerase ribozyme fitness (log ratio)” value was -0.497.
In the case of U7C C64U A100U, the “polymerase ribozyme fitness (log ratio)” value is -0.384.
As for U7C A46U C76G, the figure is -0.0822; as for U7C C101U C104U, 0.219; as for U7G A16C U55G C88U A95U, -1.79.
Under U7A G47A U96A stands -1.96; under U7C C49A G61U A75U U96A, -0.699.
Under U7A U87A G127A stands -1.5.
Turning to U7A U112A, the “polymerase ribozyme fitness (log ratio)” value worked out at 1.69.
Under U7G A29G C89A C115A G122A stands -1.64; under U7C U14A C22U G47U C56G G60A G120U, -7.5; under U7A U38C A41C G44U, -3.32.
As for U7C A74C C98U U112A, the figure is -2.74.
Regarding U7C C85A C104U U116C, the “polymerase ribozyme fitness (log ratio)” value is -1.6.
U7C C98U U112A: the “polymerase ribozyme fitness (log ratio)” value is -1.84.
As for U7C G61C, the figure is -1.87; as for U7A G60A U81A, -0.716; as for U7G A50U G117C, -3.6.
Under U7C C8G U21C C62G U78A stands -1.85.
As for U7A G39C U55C, the figure is -1.1; as for U7C G23U A29G G60U G117A G128U, -6.24; as for U7A U9C U67C C94G G113C, -7.09.
As to U7A G71A, the “polymerase ribozyme fitness (log ratio)” value is -0.425.
Under U7A U9A C20U U38A G47U C56A G60U C72G C114A A121U C123U stands -4.89.
As for U7A U9C U78A G110U, the figure is -1.82; as for U7C U14A A46U C64U, -2.69; as for U7C A18C, -1.7.
As to U7A G60A C64U C124A U133C, the “polymerase ribozyme fitness (log ratio)” value was -1.69.
Under U7C C40A U109A U129A stands -6.42; under U7A U116G, -1.35.
Under U7C A91U G117U stands -2.74; under U7C G17A A24G A26C C49A C56U C73G U87C G113A, -7; under U7C U78C C85A C124G, -0.586.
As for U7C C40U C98A A121C, the “polymerase ribozyme fitness (log ratio)” value is -3.62.
Regarding U7C G17U G35C U96A C97U U112A, the “polymerase ribozyme fitness (log ratio)” value is -6.44.
As for U7A G42U G58C G71U C88U G113A, the figure is -2.19; as for U7G A41U U59G C73U A121C, 0.0183.
As for U7C C8G G61A C79A G110A, the figure is -2.75.
Under U7C G36U G47C G48C stands -2.23; under U7C U21C G61U A83G G120A, -0.41.
With U7A G47C, the “polymerase ribozyme fitness (log ratio)” value was -1.26.
Regarding U7A G47A, the “polymerase ribozyme fitness (log ratio)” value is -0.612.
U7C C13U G47U C85A A111U: the “polymerase ribozyme fitness (log ratio)” value was -5.01.
Under U7C A37G G57A C62U stands -5.38.
Under U7C A18C G42U G77U A84U stands -2.98; under U7A G120A, 1.77.
Consider U7A G120C, for which the “polymerase ribozyme fitness (log ratio)” value came out at 1.32.
As for U7C U116C, the figure is 0.603.
As for U7C C12A C15A C20G G69U C80U C104A C114A G127C, the figure is -6.96; as for U7G A16G A18C G117U, -0.355; as for U7C G44A C79U C86U, -1.45.
Take U7C G61A U87G: the “polymerase ribozyme fitness (log ratio)” value was found to be 0.298.
U7C G17U C31U A95C C123U: the “polymerase ribozyme fitness (log ratio)” value is -6.24.
For the variant U7C G48C C70U, the “polymerase ribozyme fitness (log ratio)” value is -0.869.
Take U7A U92A A103C: the “polymerase ribozyme fitness (log ratio)” value was -5.64.
Under U7C G77C stands -0.0984; under U7C C11G A27U G35U G45A U59C A84G C101U A121U, -8.13.
Under U7G A18G U38G A50C C53U G113U stands -2.37; under U7C C8U A46U C56G G128U, -3.61; under U7A U55A U87C, 0.229.
Under U7C C40G A95U C102A stands -5.2; under U7C A91G C123U U126A, 0.505.
U7G A37U G47U U67G C70U: the “polymerase ribozyme fitness (log ratio)” value was -7.04.
On to U7C C34A G35U C56U C94A G110C, for which the “polymerase ribozyme fitness (log ratio)” value is -7.29.
As for U7G A26G C34U G113A, the figure is -4.39.
Under U7A G69C C115A stands 0.0666; under U7A U14A A37G G69A, -3.91; under U7C G60A C89G U130G, -1.83.
As for U7A G44C, the figure is -0.264; as for U7C C22U C64U C88U C123U, -2.65.
With U7C U9C, the “polymerase ribozyme fitness (log ratio)” value was 0.297.
Under U7C G17A A84U stands -2.39; under U7C A27G C62U G63A, -2.76; under U7C G17A, -1.12.
As for U7C G69U C80A A83U G128C, the “polymerase ribozyme fitness (log ratio)” value was -5.37.
Under U7A U109G stands -2.9; under U7A G44C C70G, -3.95.
U7C A27C: the “polymerase ribozyme fitness (log ratio)” value was -2.46.
Regarding U7A U9G A46C C85G, the “polymerase ribozyme fitness (log ratio)” value is -1.96.
For U7C G58A C70U U78C U116C U131G, the “polymerase ribozyme fitness (log ratio)” value is -1.13.
Under U7A G122U stands -1.47; under U7A G122A, -0.674.
Take U7C C34A: the “polymerase ribozyme fitness (log ratio)” value is -2.72.
Under U7A G45A C49G G71A C80U A84U C104U stands -4.66; under U7C G17C A121G, -1.82; under U7A U9G C70U C73U C79G A84G U96C, -4.92.
For the variant U7A G110C, the “polymerase ribozyme fitness (log ratio)” value is -3.41.
As for U7C A27G G63A, the figure is -1.53; as for U7C G48U A91U G113U G117A, -7.92; as for U7C G48U C53U G77A U81A U96C G120C, -2.
As for U7C G47A G48A G69U U78C, the “polymerase ribozyme fitness (log ratio)” value was -0.567.

These data come from the RNAGym collection of RNA variant scans (doi:10.1073/pnas.2313332121).
